Results on one molecule are retold here after patent publication US20050137128 (published 2005).

The experiment concerns the target Aβ1-40 fibril (Homo sapiens). The experiment in a line: other, fibril binding 3-point assay.

Square brackets hold non-standard residues; d marks the D form. * marks the point of attachment. NHOH = ON*

B1: PPI-1800 (peptide)
chain: Me-[dL][dV][dF][dF][dL]-{NHOH}
Turning to B1, the Kd (usually the concentration at which binding is half-saturated) was about 4 nM.
